Laboratory results reported in US20250262210A1 (TRUSTEES OF COLUMBIA UNIVERSITY IN THE CITY OF NEW YORK, published 2025).

Key:
Test in all cases: IP/MS, LZTR1 R810W-FLAG, U87
TRAPPC11 = target: T1, TRAPPC11 (human, UniProt Q7Z392 1-1133, limits assumed)
T1 sequence (looked up): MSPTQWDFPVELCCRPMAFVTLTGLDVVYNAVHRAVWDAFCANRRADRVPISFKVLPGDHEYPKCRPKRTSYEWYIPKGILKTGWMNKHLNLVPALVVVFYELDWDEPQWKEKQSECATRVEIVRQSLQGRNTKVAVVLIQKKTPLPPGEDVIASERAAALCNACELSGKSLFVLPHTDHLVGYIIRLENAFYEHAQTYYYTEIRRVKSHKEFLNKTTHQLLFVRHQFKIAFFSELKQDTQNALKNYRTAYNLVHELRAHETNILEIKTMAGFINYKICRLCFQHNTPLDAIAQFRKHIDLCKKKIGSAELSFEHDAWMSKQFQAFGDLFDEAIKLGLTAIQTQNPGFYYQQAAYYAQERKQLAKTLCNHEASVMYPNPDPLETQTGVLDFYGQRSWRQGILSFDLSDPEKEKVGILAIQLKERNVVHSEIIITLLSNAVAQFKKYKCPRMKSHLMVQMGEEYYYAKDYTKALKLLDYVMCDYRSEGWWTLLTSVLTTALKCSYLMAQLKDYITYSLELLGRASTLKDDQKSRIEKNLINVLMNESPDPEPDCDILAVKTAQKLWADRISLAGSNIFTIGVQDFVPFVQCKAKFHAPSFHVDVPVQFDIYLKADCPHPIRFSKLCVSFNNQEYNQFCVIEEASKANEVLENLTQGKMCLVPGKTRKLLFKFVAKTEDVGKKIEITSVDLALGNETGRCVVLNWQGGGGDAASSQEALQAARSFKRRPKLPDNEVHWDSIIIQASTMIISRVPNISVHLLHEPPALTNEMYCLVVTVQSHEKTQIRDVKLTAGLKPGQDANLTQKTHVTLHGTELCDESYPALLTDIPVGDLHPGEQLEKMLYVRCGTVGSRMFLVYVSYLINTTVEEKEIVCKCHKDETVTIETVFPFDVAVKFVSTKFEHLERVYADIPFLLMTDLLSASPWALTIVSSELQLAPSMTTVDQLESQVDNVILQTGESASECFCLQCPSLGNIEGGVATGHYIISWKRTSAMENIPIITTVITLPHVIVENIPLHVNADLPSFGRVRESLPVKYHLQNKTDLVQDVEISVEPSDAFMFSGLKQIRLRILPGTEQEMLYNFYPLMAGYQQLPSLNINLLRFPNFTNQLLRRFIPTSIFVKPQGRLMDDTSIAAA
How it was run: (§1)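 Read-out: spectral counts from LC-MS/MS (Orbitrap Fusion) after MaxQuant identification. Variable modifications were Met oxidation, protein N-terminal acetylation and N/Q deamidation.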

MYO10 = MYO10 (human, UniProt Q9HD67 1-2058, limits assumed)
MYO10, sequence (Q9HD67 whole entry): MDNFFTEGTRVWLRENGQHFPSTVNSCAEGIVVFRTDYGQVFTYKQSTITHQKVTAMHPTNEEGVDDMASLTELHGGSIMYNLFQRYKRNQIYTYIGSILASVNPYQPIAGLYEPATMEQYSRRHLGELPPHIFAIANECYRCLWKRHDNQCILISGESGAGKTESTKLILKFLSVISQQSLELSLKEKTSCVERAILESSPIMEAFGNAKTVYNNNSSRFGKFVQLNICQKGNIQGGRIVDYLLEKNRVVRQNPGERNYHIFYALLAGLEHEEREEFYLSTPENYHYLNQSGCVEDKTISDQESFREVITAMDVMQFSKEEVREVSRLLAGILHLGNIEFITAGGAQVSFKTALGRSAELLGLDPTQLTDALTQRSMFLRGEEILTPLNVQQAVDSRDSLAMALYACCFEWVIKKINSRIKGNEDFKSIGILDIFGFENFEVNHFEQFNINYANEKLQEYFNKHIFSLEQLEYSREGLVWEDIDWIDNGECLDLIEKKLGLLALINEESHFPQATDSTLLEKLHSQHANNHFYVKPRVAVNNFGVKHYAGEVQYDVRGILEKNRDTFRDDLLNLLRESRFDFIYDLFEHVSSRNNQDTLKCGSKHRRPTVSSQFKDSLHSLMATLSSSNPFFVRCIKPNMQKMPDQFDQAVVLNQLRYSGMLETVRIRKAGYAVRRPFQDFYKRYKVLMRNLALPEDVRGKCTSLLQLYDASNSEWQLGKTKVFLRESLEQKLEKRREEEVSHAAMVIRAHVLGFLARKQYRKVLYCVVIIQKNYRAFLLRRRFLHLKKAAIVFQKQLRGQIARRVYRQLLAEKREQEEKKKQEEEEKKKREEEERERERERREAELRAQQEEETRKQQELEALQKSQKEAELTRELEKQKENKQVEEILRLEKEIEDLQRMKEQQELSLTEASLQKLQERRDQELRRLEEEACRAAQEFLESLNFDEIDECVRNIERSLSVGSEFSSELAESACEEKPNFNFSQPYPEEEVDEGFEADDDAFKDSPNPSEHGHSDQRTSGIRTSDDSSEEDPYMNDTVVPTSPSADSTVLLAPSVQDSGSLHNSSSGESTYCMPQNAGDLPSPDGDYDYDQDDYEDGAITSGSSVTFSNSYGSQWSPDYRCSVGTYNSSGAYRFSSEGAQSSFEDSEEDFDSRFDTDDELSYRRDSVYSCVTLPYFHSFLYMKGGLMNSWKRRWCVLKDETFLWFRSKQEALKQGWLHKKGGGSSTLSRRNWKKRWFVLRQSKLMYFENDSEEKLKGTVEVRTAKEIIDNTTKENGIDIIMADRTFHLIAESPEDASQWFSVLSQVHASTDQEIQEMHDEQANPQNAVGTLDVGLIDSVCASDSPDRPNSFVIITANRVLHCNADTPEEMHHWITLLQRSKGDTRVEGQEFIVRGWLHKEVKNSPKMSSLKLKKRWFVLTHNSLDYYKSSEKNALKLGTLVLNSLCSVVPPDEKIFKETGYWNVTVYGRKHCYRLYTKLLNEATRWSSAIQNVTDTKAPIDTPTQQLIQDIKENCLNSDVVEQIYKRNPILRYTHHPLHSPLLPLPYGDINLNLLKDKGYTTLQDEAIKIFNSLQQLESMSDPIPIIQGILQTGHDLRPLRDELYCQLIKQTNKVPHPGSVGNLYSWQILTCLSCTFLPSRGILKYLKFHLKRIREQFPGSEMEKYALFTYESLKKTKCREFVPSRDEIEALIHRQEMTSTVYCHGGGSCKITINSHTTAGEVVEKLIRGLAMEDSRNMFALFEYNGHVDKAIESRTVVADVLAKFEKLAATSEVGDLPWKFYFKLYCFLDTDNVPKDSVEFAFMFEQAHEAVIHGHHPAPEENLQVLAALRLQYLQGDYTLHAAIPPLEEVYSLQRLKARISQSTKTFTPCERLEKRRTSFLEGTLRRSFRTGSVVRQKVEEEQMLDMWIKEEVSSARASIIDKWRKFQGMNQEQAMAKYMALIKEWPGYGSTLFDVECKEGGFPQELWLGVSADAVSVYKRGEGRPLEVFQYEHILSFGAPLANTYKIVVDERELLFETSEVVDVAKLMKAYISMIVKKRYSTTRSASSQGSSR
How it was run: as §1

LAMB3 = target: T2, LAMB3 (human, UniProt Q13751 18-1172)
T2 sequence (looked up): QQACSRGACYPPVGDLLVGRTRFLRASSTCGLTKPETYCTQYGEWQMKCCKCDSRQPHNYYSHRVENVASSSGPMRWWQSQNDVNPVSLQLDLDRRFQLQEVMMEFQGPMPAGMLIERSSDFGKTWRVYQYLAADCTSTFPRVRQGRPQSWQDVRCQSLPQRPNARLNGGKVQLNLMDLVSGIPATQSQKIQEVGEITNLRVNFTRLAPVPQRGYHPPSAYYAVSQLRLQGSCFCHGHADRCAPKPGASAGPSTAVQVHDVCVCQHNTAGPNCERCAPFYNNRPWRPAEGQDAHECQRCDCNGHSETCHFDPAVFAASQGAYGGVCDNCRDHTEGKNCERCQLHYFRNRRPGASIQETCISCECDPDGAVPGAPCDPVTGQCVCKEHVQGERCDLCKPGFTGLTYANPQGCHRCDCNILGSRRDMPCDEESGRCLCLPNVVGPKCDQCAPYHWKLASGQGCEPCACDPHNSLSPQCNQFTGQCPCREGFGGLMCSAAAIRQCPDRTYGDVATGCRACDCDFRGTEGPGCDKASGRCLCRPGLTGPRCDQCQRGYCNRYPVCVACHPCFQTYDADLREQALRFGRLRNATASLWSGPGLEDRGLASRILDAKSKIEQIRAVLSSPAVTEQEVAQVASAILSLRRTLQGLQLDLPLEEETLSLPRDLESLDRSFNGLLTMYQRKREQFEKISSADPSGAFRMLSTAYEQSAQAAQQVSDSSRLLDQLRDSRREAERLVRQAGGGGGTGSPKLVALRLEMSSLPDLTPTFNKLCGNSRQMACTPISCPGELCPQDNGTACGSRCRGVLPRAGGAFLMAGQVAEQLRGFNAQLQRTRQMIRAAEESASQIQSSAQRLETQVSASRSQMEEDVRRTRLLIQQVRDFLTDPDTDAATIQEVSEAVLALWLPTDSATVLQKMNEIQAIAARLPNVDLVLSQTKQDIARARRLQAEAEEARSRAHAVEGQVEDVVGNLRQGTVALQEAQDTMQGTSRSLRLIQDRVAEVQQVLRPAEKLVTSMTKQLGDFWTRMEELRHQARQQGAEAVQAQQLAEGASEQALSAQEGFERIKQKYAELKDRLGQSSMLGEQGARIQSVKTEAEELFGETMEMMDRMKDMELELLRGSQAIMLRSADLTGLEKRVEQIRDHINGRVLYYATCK
How it was run: as §1

Measured: binding result

B1: LZTR1 R810W-FLAG (other, human, UniProt Q8N653 1-840, looked up)
chain: MAGPGSTGGQIGAAALAGGARSKVAPSVDFDHSCSDSVEYLTLNFGPFETVHRWRRLPPCDEFVGARRSKHTVVAYKDAIYVFGGDNGKTMLNDLLRFDVKDCSWCRAFTTGTPPAPRYHHSAVVYGSSMFVFGGYTGDIYSNSNLKNKNDLFEYKFATGQWTEWKIEGRLPVARSAHGATVYSDKLWIFAGYDGNARLNDMWTIGLQDRELTCWEEVAQSGEIPPSCCNFPVAVCRDKMFVFSGQSGAKITNNLFQFEFKDKTWTRIPTEHLLRGSPPPPQRRYGHTMVAFDRHLYVFGGAADNTLPNELHCYDVDFQTWEVVQPSSDSEVGGAEVPERACASEEVPTLTYEERVGFKKSRDVFGLDFGTTSAKQPTQPASELPSGRLFHAAAVISDAMYIFGGTVDNNIRSGEMYRFQFSCYPKCTLHEDYGRLWESRQFCDVEFVLGEKEECVQGHVAIVTARSRWLRRKITQARERLAQKLEQEAAPVPREAPGVAAGGARPPLLHVAIREAEARPFEVLMQFLYTDKIKYPRKGHVEDVLLIMDVYKLALSFQLCRLEQLCRQYIEASVDLQNVLVVCESAARLQLSQLKEHCLNFVVKESHFNQVIMMKEFERLSSPLIVEIVRRKQQPPPRTPLDQPVDIGTSLIQDMKAYLEGAGAEFCDITLLLDGHPRPAHKAILAARSSYFEAMFRSFMPEDGQVNISIGEMVPSRQAFESMLRYIYYGEVNMPPEDSLYLFAAPYYYGFYNNRLQAYCKQNLEMNVTVQNVLQILEAADKTQALDMKRHCLHIIVHQFTKVSKLPTLWSLSQQLLLDIIDSLASHISDKQCAELGADI
notes: Stably expressed in U87 cells by lentivirus; also called LZTR1-FLAG-R810W; LZTR1 RW; not shown: FLAG tag
binds: all assays above
